Biological target: the molecule itself
Test: negative-stain electron microscopy

B1: Cp149, CTD-less HBV core protein (domain or fragment)
chain: MDIDPYKEFGATVELLSFLPSDFFPSVRDLLDTASALYREALESPEHCSPHHTALRQAILCWGELMTLATWVGVNLEDPASRDLVVSYVNTNMGLKFRQLLWFHISCLTFGRETVIEYLVSFGVWIRTPPAYRPPNAPILSTLPETTVV
- binding result: binds

B2: Cp183-F97L (natural protein)
chain: MDIDPYKEFGATVELLSFLPSDFFPSVRDLLDTASALYREALESPEHCSPHHTALRQAILCWGELMTLATWVGVNLEDPASRDLVVSYVNTNMGLKLRQLLWFHISCLTFGRETVIEYLVSFGVWIRTPPAYRPPNAPILSTLPETTVVRRRGRSPRRRTPSPRRRRSQSPRRRRSQSRESQC
- binding result: binds

Reference: paper PMC8092406 (Proceedings of the National Academy of Sciences of the …, 2021)
